Where “and” joins values, the source holds several entries; their conditions need not be identical. Equal values may be shown once.
Biological target: the molecule itself
Test: crystal structure

B1: N-terminal lipid-binding domain of Mycobacterium tuberculosis Wag31 (residues 2-60) (domain or fragment)
chain: PLTPADVHNVAFSKPPIGKRGYNEDEVDAFLDLVENELTRLIEENSDLRQRINELDQEL
notes: Assembly states reported: parallel coiled-coil dimer (asymmetric unit), tetramer ('dimer-of-dimers'); also called N-Wag31; N-terminal Wag31
- stoichiometry N: 2 and 4

— paper PMC7340271 (IUCrJ, 2020)
